# T1: 6His-Scy (recombinant, from E. coli)
# T1 chain: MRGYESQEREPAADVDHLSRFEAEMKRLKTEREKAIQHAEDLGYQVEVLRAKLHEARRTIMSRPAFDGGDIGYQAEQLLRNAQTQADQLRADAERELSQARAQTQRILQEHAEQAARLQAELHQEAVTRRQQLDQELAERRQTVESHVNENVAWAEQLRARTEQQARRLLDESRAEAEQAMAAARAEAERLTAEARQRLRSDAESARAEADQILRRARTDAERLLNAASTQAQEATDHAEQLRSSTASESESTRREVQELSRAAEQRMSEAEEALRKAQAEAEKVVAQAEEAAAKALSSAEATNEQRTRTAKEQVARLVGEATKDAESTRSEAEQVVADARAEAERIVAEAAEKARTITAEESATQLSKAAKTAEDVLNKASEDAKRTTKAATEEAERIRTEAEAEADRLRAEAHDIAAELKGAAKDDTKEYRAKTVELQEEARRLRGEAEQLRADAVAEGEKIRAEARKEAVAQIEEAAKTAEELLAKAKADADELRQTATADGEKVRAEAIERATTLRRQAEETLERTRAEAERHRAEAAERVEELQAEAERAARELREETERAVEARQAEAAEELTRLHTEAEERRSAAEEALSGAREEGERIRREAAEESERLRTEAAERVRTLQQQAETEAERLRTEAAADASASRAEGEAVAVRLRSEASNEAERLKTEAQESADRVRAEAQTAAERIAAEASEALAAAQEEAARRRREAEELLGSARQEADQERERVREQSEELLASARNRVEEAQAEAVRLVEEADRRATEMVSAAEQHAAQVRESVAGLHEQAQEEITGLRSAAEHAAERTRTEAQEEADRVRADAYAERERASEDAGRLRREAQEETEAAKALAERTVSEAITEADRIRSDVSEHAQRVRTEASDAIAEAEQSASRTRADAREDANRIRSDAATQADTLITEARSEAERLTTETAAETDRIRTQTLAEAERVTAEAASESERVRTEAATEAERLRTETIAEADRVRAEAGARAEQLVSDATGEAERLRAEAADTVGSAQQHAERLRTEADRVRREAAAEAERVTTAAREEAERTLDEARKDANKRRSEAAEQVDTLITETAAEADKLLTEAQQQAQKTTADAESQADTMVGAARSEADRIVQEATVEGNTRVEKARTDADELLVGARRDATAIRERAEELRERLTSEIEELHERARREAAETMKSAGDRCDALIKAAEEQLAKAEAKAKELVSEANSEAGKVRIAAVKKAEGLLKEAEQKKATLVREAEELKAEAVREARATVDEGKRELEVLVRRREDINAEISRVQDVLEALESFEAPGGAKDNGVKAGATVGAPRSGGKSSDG
# Biological target: T1, 6His-Scy (recombinant, from E. coli)
# Test: SPR
# Details: chain shown with the change, ParA or ParAScy- (500 RU) immobilized on CM5 in the presence of ATP, read off a plot
binder,measurement,setting,value
ParA (purified recombinant wild type) S249Y; E250V (protein) MDDTPIGRAAQLAVEALGRAGEGLPRPEQTRVMVVANQKGGVGKTTTTVNLAASLALHGARVLVVDLDPQGNASTALGIDHHADVPSIYDVLVESRPLSEVVQPVPDVEGLFCAPATIDLAGAEIELVSLVARESRLQRAITAYEQPLDYILIDCPPSLGLLTVNALVAGQEVLIPIQCEYYALEGLGQLLRNVDLVRGHLNPTLHVSTILLTMYDGRTRLASQVADEVRSHFGEEVLRTSIPRSVRIYVAPSYGQTVLTYDPGSSGALSYLEAAREIALKGVGVTYDATHAHLGAQNDPSMVEGTQ,response,"600 nM 6His-Scy, parent: est. 13",4.5 RU
same,response,"1000 nM 6His-Scy, parent: est. 27",12 RU
same,response,"2000 nM 6His-Scy, parent: est. 43",17 RU
same,response,"4000 nM 6His-Scy, parent: est. 53",25 RU

# Source: paper PMC3718342
